Reference: paper PMC4423619 (Journal of glycomics & lipidomics, 2015)

Molecular target: T1, rat testis FSH receptor (rat (endogenous in rat testis), UniProt P20395 18-692)
T1 sequence (looked up): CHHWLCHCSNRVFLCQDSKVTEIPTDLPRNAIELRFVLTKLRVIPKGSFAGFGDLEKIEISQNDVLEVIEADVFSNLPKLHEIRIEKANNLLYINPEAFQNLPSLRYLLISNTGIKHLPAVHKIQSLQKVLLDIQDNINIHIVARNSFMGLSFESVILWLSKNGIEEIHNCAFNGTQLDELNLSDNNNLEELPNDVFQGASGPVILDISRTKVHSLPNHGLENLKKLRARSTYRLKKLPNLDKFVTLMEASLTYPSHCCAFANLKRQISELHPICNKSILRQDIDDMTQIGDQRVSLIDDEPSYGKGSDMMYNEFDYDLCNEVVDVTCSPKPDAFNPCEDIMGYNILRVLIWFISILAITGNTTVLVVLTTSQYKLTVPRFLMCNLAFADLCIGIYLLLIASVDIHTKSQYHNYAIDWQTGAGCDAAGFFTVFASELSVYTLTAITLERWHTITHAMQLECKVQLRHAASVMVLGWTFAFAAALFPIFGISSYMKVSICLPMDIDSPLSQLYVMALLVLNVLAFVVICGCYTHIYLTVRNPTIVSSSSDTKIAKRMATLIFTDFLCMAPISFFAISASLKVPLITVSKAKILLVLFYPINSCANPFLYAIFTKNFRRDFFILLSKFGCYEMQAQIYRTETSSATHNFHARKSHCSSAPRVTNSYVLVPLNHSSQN
Experiment: radioligand binding

B1: human pituitary hFSH^24 glycoform (fully-glycosylated hFSH^24) (complex)
chain 1: not shown
chain 2: NSCELTNITIAIEKEECRFCISINTTWCAGYCYTRDLVYKDPARPKIQKTCTFKELVYETVRVPGCAHHADSLYTYPVATQCHCGKCDSDSTDCTVRGLGPSYCSFGEMKE
modifications: N-glycans at Asn52 and Asn78 | N-glycans at Asn7 and Asn24
**Q.** Which ID50 does the source give for B1 here?
**A.** The ID50 was 269 ng.
